Measurements published in publication PMC9205888, “Efficient discrimination against RNA-containing primers by human DNA polymerase ε”.

B1: R10-D1 template:primer (mixed)
DNA: AATACATAAGCGCTCCAGGCAAT
RNA: GCCUGGAGCGC
modifications: primer nt 1-10 RNA, nt 11 2',3'-dideoxy-C
B2: R6-D5 template:primer (mixed)
DNA: AATACATAAGCGCTCCAGGCAAT
RNA: GCCUGGAGCGC
modifications: primer nt 1-6 RNA, nt 7-11 DNA, 3' ddC
B3: D10-R1 template:primer (mixed)
DNA 1: AATACATAAGCGCTCCAGGCAAT
DNA 2: GCCTGGAGCGC
modifications: primer nt 1-10 DNA, nt 11 3'-deoxy-C (2'-OH)
B4: R4-D7 template:primer (mixed)
DNA: AATACATAAGCGCTCCAGGCAAT
RNA: GCCUGGAGCGC
modifications: primer nt 1-4 RNA, nt 5-11 DNA, 3' ddC
B5: EMSA D15 template:primer (dsDNA)
DNA 1: ATTATGGCAGCTCGGAGTCC
DNA 2: GGACTCCGAGCTGCC
B6: R11 template:primer (DNA:RNA)
DNA: AATACATAAGCGCTCCAGGCAAT
RNA: GCCUGGAGCGC
modifications: RNA primer
B7: D11 template:primer (dsDNA)
DNA 1: AATACATAAGCGCTCCAGGCAAT
DNA 2: GCCTGGAGCGC
modifications: primer 3'-terminal 2',3'-dideoxy-C
B8: R8-D3 template:primer (mixed)
DNA: AATACATAAGCGCTCCAGGCAAT
RNA: GCCUGGAGCGC
modifications: primer nt 1-8 RNA, nt 9-11 DNA, 3' ddC

How the values were obtained:
[1] = molecular target: T1, hPolεCD (DNA polymerase ε catalytic domain, exo-) (Homo sapiens, UniProt Q07864 27-1172, D275N;E277Q;del185-209); assay: BLI; 100 mM NaCl, no dTTP/Mg2+; BLI (Octet K2): 30 mM Tris-Hepes pH 7.8, 100-150 mM NaCl, 2 mM TCEP, 0.002% Tween 20, 23 °C; EMSA: 20 mM Tris-Hepes pH 7.8, 100 mM NaCl, 2% glycerol, 2 mM TCEP, 0.2 mg/mL BSA, room temperature; details: protein: recombinant; tags: none in final protein (N-terminal His6-Sumo cleaved); label: 5' BiotinTEG on template; template 5' overhang 9 nt and 3' overhang 3 nt
T1 sequence (Q07864 other isoform, or with tags, fused parts or gaps D275N;E277Q;del185-209): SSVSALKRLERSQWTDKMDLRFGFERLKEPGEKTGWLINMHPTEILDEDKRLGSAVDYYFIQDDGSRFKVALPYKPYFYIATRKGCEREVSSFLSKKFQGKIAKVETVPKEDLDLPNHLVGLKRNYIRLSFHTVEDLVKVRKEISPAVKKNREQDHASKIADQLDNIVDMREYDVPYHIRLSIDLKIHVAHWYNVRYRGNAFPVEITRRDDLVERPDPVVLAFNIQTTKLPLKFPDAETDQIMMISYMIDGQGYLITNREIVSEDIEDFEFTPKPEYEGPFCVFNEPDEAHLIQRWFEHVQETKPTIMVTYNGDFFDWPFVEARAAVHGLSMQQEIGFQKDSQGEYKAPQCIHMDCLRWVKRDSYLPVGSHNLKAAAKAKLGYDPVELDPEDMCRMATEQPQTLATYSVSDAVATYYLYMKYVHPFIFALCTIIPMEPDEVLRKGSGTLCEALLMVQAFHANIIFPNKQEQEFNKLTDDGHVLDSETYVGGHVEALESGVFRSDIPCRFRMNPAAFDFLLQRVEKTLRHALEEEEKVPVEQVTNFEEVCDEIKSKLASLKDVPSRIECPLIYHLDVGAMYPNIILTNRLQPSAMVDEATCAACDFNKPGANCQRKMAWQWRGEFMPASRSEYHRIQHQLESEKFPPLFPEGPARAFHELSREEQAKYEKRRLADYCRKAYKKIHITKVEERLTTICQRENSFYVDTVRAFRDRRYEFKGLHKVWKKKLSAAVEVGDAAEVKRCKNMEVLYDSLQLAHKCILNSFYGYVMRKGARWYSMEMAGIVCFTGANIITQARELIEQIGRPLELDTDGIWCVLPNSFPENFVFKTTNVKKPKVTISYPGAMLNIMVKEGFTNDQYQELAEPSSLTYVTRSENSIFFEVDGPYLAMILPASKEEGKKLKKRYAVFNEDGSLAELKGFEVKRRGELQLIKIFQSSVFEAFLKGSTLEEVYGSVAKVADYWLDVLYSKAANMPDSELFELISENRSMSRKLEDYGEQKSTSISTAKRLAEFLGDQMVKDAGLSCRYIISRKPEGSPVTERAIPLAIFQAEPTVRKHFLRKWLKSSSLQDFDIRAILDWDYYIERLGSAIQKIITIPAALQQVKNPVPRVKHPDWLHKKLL

[2] = molecular target: T1, hPolεCD (DNA polymerase ε catalytic …); assay: BLI; 100 mM NaCl, 50 µM dTTP, 5 mM Mg2+; BLI (Octet K2): 30 mM Tris-Hepes pH 7.8, 100-150 mM NaCl, 2 mM TCEP, 0.002% Tween 20, 23 °C; EMSA: 20 mM Tris-Hepes pH 7.8, 100 mM NaCl, 2% glycerol, 2 mM TCEP, 0.2 mg/mL BSA, room temperature; details: protein: recombinant; tags: none in final protein (N-terminal His6-Sumo cleaved); label: 5' BiotinTEG on template; template 5' overhang 9 nt and 3' overhang 3 nt
[3] = molecular target: T1, hPolεCD (DNA polymerase ε catalytic …); assay: EMSA; 100 mM NaCl, 0.5 µM DNA; active fraction titration (55.4 ± 4.3%); BLI (Octet K2): 30 mM Tris-Hepes pH 7.8, 100-150 mM NaCl, 2 mM TCEP, 0.002% Tween 20, 23 °C; EMSA: 20 mM Tris-Hepes pH 7.8, 100 mM NaCl, 2% glycerol, 2 mM TCEP, 0.2 mg/mL BSA, room temperature; details: protein: recombinant; tags: none in final protein (N-terminal His6-Sumo cleaved); label: 5' Cy3 on primer; template 5' overhang 5 nt
[4] = molecular target: T1, hPolεCD (DNA polymerase ε catalytic …); assay: BLI; 150 mM NaCl, no dTTP/Mg2+; BLI (Octet K2): 30 mM Tris-Hepes pH 7.8, 100-150 mM NaCl, 2 mM TCEP, 0.002% Tween 20, 23 °C; EMSA: 20 mM Tris-Hepes pH 7.8, 100 mM NaCl, 2% glycerol, 2 mM TCEP, 0.2 mg/mL BSA, room temperature; details: protein: recombinant; tags: none in final protein (N-terminal His6-Sumo cleaved); label: 5' BiotinTEG on template; template 5' overhang 9 nt and 3' overhang 3 nt
[5] = molecular target: T1, hPolεCD (DNA polymerase ε catalytic …); assay: BLI; 125 mM NaCl, no dTTP/Mg2+; BLI (Octet K2): 30 mM Tris-Hepes pH 7.8, 100-150 mM NaCl, 2 mM TCEP, 0.002% Tween 20, 23 °C; EMSA: 20 mM Tris-Hepes pH 7.8, 100 mM NaCl, 2% glycerol, 2 mM TCEP, 0.2 mg/mL BSA, room temperature; details: protein: recombinant; tags: none in final protein (N-terminal His6-Sumo cleaved); label: 5' BiotinTEG on template; template 5' overhang 9 nt and 3' overhang 3 nt

Row | Binder | Kd [1] [nM] | also measured
1 | B1 | 73 ± 14 | 
2 | B2 | 69.8 ± 6.4 | 
3 | B3 | 45.6 ± 6.1 | 
4 | B4 | 58.6 ± 1.3 | Kd [2]: 83 ± 3.3 nM
5 | B5 |  | binding result [3]: binds
6 | B6 | 65.8 ± 8.8 | 
7 | B7 | 61.4 ± 12 | Kd [2]: 120 ± 11 nM; Kd [4]: 1520 ± 91 nM; Kd [5]: 532 ± 53 nM
8 | B8 | 62.5 ± 6.1 | 
